Source: paper PMC11414387

Biological target: FBXO11 (UniProt Q86XK2)
Experiment: co-IP of exogenous proteins
Conditions: reference: wild type

Row | Substance | binding against the reference (sites S33) | binding against the reference (sites S37)
1 | β-catenin (from UniProt P35222) S33A | lost | –
2 | β-catenin (from UniProt P35222) S37A | – | lost
